Measurements as given in PMC9722636.

Target: recombinant HAstV MLB1 capsid spike domain (residues 399-653 of the HAstV MLB1 capsid protein) (Human astrovirus MLB1)
Test: SEC

recombinant HAstV MLB1 capsid spike domain (residues 399-653 of the HAstV MLB1 capsid protein) (domain or fragment)
stoichiometry N: 2
